Results reported in patent US9046519.

Assays:
[1] = target: human thyrotropin receptor (TSHR), wild type, full length (human) (UniProt P16473); assay: cell-based or functional assay
[2] = target: TSHR Arg255 to Asp (human) (UniProt P16473); assay: cell-based or functional assay

A Cyclic AMP produced (fmol/cell well), hMAb TSHR1 IgG 1 ng/mL (fmol/cell well) [1] of 4860, a Cyclic AMP produced (fmol/cell well), hMAb TSHR1 IgG 10 ng/mL (fmol/cell well) [1] of 16200 and a Cyclic AMP produced (fmol/cell well), hMAb TSHR1 IgG 100 ng/mL (fmol/cell well) [1] of 15400 were found for hMAb TSHR1 IgG (antibody) in this work. For the same substance, the Cyclic AMP produced (fmol/cell well), hMAb TSHR1 IgG 1 µg/mL (fmol/cell well) [1] was 16300, the Cyclic AMP produced (fmol/cell well), hMAb TSHR1 IgG 1 ng/mL (fmol/cell well) [2] was 940 and the Cyclic AMP produced (fmol/cell well), hMAb TSHR1 IgG 10 ng/mL (fmol/cell well) [2] was 3160. It also gave a Cyclic AMP produced (fmol/cell well), hMAb TSHR1 IgG 100 ng/mL (fmol/cell well) [2] of 5700, a Cyclic AMP produced (fmol/cell well), hMAb TSHR1 IgG 1 µg/mL (fmol/cell well) [2] of 5030 and a Mutated/Wild type (%), hMAb TSHR1 IgG 1 ng/mL [2] of 19%. For the same substance, the Mutated/Wild type (%), hMAb TSHR1 IgG 10 ng/mL [2] was 19% and the Mutated/Wild type (%), hMAb TSHR1 IgG 100 ng/mL [2] was 37%.
